Substrate in this data set: Nc1nc2c(ncn2[C@@H]2O[C@H](COP(=O)(O)OP(=O)(O)OP(=O)(O)O)[C@@H](O)[C@H]2O)c(=O)[nH]1
Briefly: purified protein. It is filed as biochemical, Saccharomyces cerevisiae. To be noted: pH 8.0, 300 mM NaCl, 5 mM MgCl2, 30°C, labelled compound, Snu114 without Prp8.

Among the data in PMC7192624 are Km and kcat values, retold here.

B1: Snu114^72-1008 (isolated) (Saccharomyces cerevisiae S288C) (protein)
chain: KEVEVLMETKNTQSPQTPLVEPVTERTKLQEHTIFTQLKKNIPKTRYNRDYMLSMANIPERIINVGVIGPLHSGKTSLMDLLVIDSHKRIPDMSKNVELGWKPLRYLDNLKQEIDRGLSIKLNGSTLLCTDLESKSRMINFLDAPGHVNFMDETAVALAASDLVLIVIDVVEGVTFVVEQLIKQSIKNNVAMCFVINKLDRLILDLKLPPMDAYLKLNHIIANINSFTKGNVFSPIDNNIIFASTKLGFTFTIKEFVSYYYAHSIPSSKIDDFTTRLWGSVYYHKGNFRTKPFENVEKYPTFVEFILIPLYKIFSYALSMEKDKLKNLLRSNFRVNLSQEALQYDPQPFLKHVLQLIFRQQTGLVDAITRCYQPFELFDNKTAHLSIPGKSTPEGTLWAHVLKTVDYGGAEWSLVRIYSGLLKRGDTVRILDTSQSESRQKRQLHDISKTETSNEDEDEDDETPSCEVEEIGLLGGRYVYPVHEAHKGQIVLIKGISSAYIKSATLYSVKSKEDMKQLKFFKPLDYITEAVFKIVLQPLLPRELPKLLDALNKISKYYPGVIIKVEESGEHVILGNGELYMDCLLYDLRASYAKIEIKISDPLTVFSESCSNESFASIPVSNSISRLGEENLPGLSISVAAEPMDSKMIQDLSRNTLGKGQNCLDIDGIMDNPRKLSKILRTEYGWDSLASRNVWSFYNGNVLINDTLPDEISPELLSKYKEQIIQGFYWAVKEGPLAEEPIYGVQYKLLSISVPSDVNIDVMKSQIIPLMKKACYVGLLTAIPILLEPIYEVDITVHAPLLPIVEELMKKRRGSRIYKTIKVAGTPLLEVRGQVPVIESAGFETDLRLSTNGLGMCQLYFWHKIWRKVPGDVLDKDAFIPKLKPAPINSLSRDFVMKTRRRKGISTGGFMSNDGPTLEKYISAELYAQLRENGLVP
notes: residues 72-1008 (acidic N-terminal region truncated), C-terminal Strep tag (pIDS-C-Strep), synthetic gene, recombinant in insect cells (MultiBac)
The Km is the concentration of substrate that gives half-maximal velocity. Broadly, the kcat is the number of substrate molecules converted per active site and unit of time at saturation. As for B1, the Km turned out to be 578.4 µM and the kcat turned out to be 0.001012 s⁻¹.
